Assay: soluble fraction after stress (log2 fold change); higher = more stays soluble; pooled small domains, quantitative proteomics
Conditions: stress: 75 degC
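Further: 20 min heating vs room temperature control held 20 min.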

Sequence | soluble fraction (log2)
HMNHLSYEQRLKIKEMLDGGFKKIDIARALGVHNATIYREIERGSVNGIYNPNKSEEQYRDHLSEK | 0.378
HMNHYIGVDRAKEIALNHANLSETDVVFTKEKLENDDGGAEYEIEFHSGRTEYDYTIDAASGNIIEYDVDY | 0.324
HMNIDGLIGKKALVTADIDNVNSKGQIKINGLEWTARSVDDEPIPMGTEVEITAISGVKAIVRKG | 0.139
HMNIEANLEDILRRAMPSAAKLILENSLNINKIIGTGKEGRITKGDVLLYLKDKNLILENILN | -0.079
HMNIEEAESILKEIKTVLTDKEYEVYTLRAKGFTYQEIASLLNTTTKSVDGALSRIKTKINNIK | -0.674
HMNIFKLYEENIGPLTPMIADILKEDEAEFPDYWIREAIEIAVKKNARNWKYVHAVLESWQKE | -3.47
HMNILKAPMPGLILDVIVKESDLVKKGDPVIILEAMKMENILSSPVDGIVKEIKVNPQQTVEKNNTLIKFE | -0.0843
HMNILNFSENIIKLRHKKGITQEELADFVGVTKASVSKWETKQSLPDIMLLPRLAAYFDVTVDELLGYEP | -2.16
HMNINHEINIKSKKKISILENNPNLSQFYLTKNPDQYNYNLVFSDKSELNKLKEKLESDNEVEDIDIRYG | -0.0517
HMNINTEMEKVSYSLGVNIASSLKQQGWELDAKSLSDAFVDVFNGNKLLIDEKEASSILQNYQQKIANK | 0.0321
HMNIQKYFAGREQFIELLEAVGIRTLEQFASADPSTVLPELHQAKRMLKLQTEIPSAPVFREWVNQALS | -0.636
HMNIQPAMLNAANGGVAWKERGISMSQIMKRNAHTAEGSQKLWDYAFENFFQKNIDAGNIRDDR | -0.157
HMNIVKGDTTANVRVVQQRLYNLGYYTYKVDGIWGTRTKTAVKKFQKDKGLVADGIVGAKTEKALGITLT | -2.35
HMNIVVSSIDSNSFEIVNKETGEQAVISYDKETKKGFVLINGVKKEFFQDGNKVYYDGYVIAE | 0.0406
HMNKDEFLNELKSYLSILEDEEQADILEEYTQHIDMKISTGLSEAEAIRDFGNVSELAAQILEAY | -0.465
HMNKIGTIVSINGPIVKTAGDVGFVMHEMVYVGKEKLVGEVIGLTTDFTIVEVYEETSGIKPGETIEGT | -1.87
HMNKKEIISVLEKIIPPSQIKNINIFGSELVIDLNIDNPSLHAKKKLEKSIMSSFDENLKIIVNFSVE | -0.252
HMNKLSISALAETVSTKRKEKSMTQQDLSDATGINRALISRLEQKDFIPSIPQLEKLEEILGFELEEVF | -0.324
HMNKMHKLPSVSEILNKVRLQKIHNESFIKFKIKEEIDRYRKLAKKDQLFLSRDEITYEIIEKLLNFSMPS | -3.97
HMNKMIDAPDLTGLSLEDAKLVLEANKLQLGTVSHEPSDKPEDVVISQDPMEGQEIQQGGKVNLVVSYGD | 0.305
HMNKNNLRNVSSKIRKSRRVLNLSQAELSKKLDISPSYLNLIESGKRPITVPLLIKLGNILGISLKDL | -1.89
HMNKNQIGTNAGIVWKLLSDNVHWEYDKLKHASGLSDRDLNAAIGWLAREDKIDFDIDEQHDRLFL | -0.515
HMNKPKIIINSVDDSVFSDYVKDSLSIAEVARSIGIDNNKINTSVYREIHKRIDSLKLDTSHFTGGAWN | -0.235
HMNKPLFVYPNPVHQGKINLSKATNFMVVDLLGQTVNKTNYGKDFSIDNLPNGVYFIKTTEGEIIKFMK | -0.701
HMNKQEFLNTLRIIFKKANVLDVESIIDVYEEHFAVGYEKGLNDEQIIKSLGTPKEIYTSYVEAGI | -1.31
HMNKSGVVLIRVTVDASGRVTSAAYEPKGSTTSDVELVAEARKAALRTRFTESRTVIEGGVITYIFKL | -2.59

Sequence | soluble fraction (log2)
HMNKSYTVPDVRGMTVEEAQEAEGVKDIFTVHVQGTRKTDEYQPGQIVEQDPIAGRTRKSNFVIEVYVAE | -0.34
HMNKTQLQIEDEVLKPLIAEIFSKSKGRFGARKIRSKLMGLGYTASERRILRLMKELGLSSAG | -1.19
HMNKTVKIPNVSNLSREDAESVLKENGISVNSEVKQIESDTIEKGKVVKTDPSIGTSVKKGRSITIYVSSG | 0.544
HMNKWMQLASEEDKKLFNEAPKEIQDSITESAKFFDIRTKADVDTFWANTGLRQMKQQAMLNESFVNEY | -0.0697
HMNLDMVINKIGIVTEDIKQDKIGEVKVLGKRWSAYSNTELKKDEKVKILSIDGVKLKVEKI | -0.135
HMNLGAHVYWRNHRAYGDFREYEDVGGGREALALPGSTWGTKDPRVAQALFAARLTEFQEARVGR | -0.989
HMNLGVIYSLKAEVRSEPNTFSTRLFEVHEGLKVSINQLENDWVEIELLDGKTGWISNDQIRLI | -2.61
HMNLIFFSENLSTFRKEKGWTQSELAEKLGVKANTISNYEKGISTPDYKIIAKLRELFEMPTDVLLYSNLS | -1.86
HMNLLDYDFFEKMSSKEQEEIVEKVYIDFLNKSTGTNSPFYLKLFEKGKKSYIVNWLNENNF | -1.77
HMNLLSPREKQSLTLYASGLTLREVASELKLSPNSVGKFISRGKFKLNKSGAIVNSKTSIYLELKKRNLI | -0.147
HMNLNESVELGQELLSQALAQLGIRGELSPSTIDKLLAESSAKSMEELYADIGIGKRMPALVARHIFGLMD | -0.627
HMNLQAYQSVLDKLNEEYGTTFRFPTEEELHEVGLTNTVDPRTATVSATEFEKYMRPIAERISQANL | -0.205
HMNLSAREWTSADGSRTFQGELTGFQDGKVKVRRSDGKSLVFAIELLSESDQQFIKTNQLVIAKKDED | 0.0766
HMNLYHALDQQGEVYLTIPPRQSGRGKVTLMIDGRVREMDAMTDGDALKTGSKVRVTEILDENALKVEAM | 0.215
HMNMAEETLDTAAKILKAAEEEFMEKGYGNAKMMSIAARAGVSHSMLHYYYRSKGKLFQMIFDEKA | -1.41
HMNMAEQGISLDSEAGKARFVSQALPLLKQLPDGVFKQRMLNQLADRVEVTADFIAQQLAQLKAA | -0.0979
HMNMAVELEDGTQIFVFSEDGEFAGKRAVIADEEGRPTEENAPAGTHTLRDGRSIVVGEGGVIESVVET | -0.0672
HMNMEYQKAINHIVQMVKDGQLIVGSKIPSERDLSESLGIGRNSTREAISILRGMGLVESRHGSGNYIAKD | -0.2
HMNMGEKIRSLIGQFGVTSEDLKNLSVANLLIRMNQEAGDSKTKGILASLLETVNKAGVGNLTPDALGIK | -0.164
HMNMLGEQVRNIRKSRGFTLKALAEQTGLSIGYISQIERNLTDPSLSTLRKISAALDVPTYLFMG | -2.13
HMNMLGSNIKYLRNRHKLSQQELSEKLGVPRSSLSDYERGHTQVGLDSLIKLADIFDVKIDDLLRSNLSHR | -0.439
HMNMPHEIDANFISSLGRLIDNHGKNYGDFQIFREMFLDYFPRFDELSSNNKEKINRRLYKFFETLFG | -2.09
HMNMVEESVKKSSQWAVFEPNTISTWVKIQAMIENYLYQKWKEGALAGAKPEHAFFVKVGLGETM | 0.258
HMNNEISINGNKIYFNKNISKVFIYDISGKLIKHKNNFNNNFIDLSEFNSAFYIIKALDINENYTTKKIFL | -1.69
HMNNFTPEHLEKDIEGSLFFRRLKETAREEPGSLTVAQKDFIQMWHDQADGVYTLRQVFVQTAFDHVRSL | 0.315
HMNNFTQSALDTIDGIGKRRKKLLLNHFGSVKLIENASIEDIKKIDGISDLVANKIYNFFNKN | -1.04

Sequence | soluble fraction (log2)
HMNNGAEIGAEIRSLRKARGLTLEDLAAKIGRSVGYISQVERGISPLTIPNLKAIAEVLGVGINWFFRGEA | -1.15
HMNNILNYTIAELMEILKIDDLETENVINSSNNLINKSINENNFPLAEFYEDVKNNLIEFIETFDS | -0.771
HMNNLELSEEEKSVLTIIEKEGLIELDKLKTKLELSNKKWDKTLKFLTKNKLAKVVKNDNGLFVEL | -0.158
HMNNLLEDIKARLMAQAEAGGHIDTETELAEHFGVTRYRIRKELDLLSQMGLLRRQPKNGIEVLTV | -0.171
HMNNLNDIIEIIRIYAKNYARNNPSWNHSELINRIRDKALGEAEDYNIRLSEEDLALITELSLRGL | -0.713
HMNNMVNTLLKLLAEQDVLRGIVRRFTPSSVFVFLQNEEVEVELPLQGRSLAPGQLVELTQEGASVALKRL | -0.936
HMNNPLLDKVYQLMKQNNITEEEIVRAVAMKGYFPDDMKLGDYPDDFIDGVLIGAWDQIKQFIINNISPFK | -0.281
HMNNSDIDITVGKNSISINNPNRTNIIIYSSNGMLIDSSKNASYKRNLPSGIYIVKSGSSTHKVIV | -0.905
HMNNTIKFFVSQDDDSTRLDVFLSKKIENLTRSNIKKFINLNNVKINKATINSPSKKVKLYDEIEIKFSS | -2.46
HMNNTIKFSVDSQNSGKRLDIFLTENIKNYTRSFLKKLIENRQVKLNNNFIISPSERVKFKDQININILQ | -1.8
HMNNVDIMGRMVYDDQHREVINFGKYKGVLVTEVLKKDPGYFSWIQQGDFPSDMKRIMMAIKLRM | -2.61
HMNNVDQLIEQYKTLPGGLLPLLHAIKHALGYIPESTVGSIAKGFNLSRAEVHGVISFYHDFNTQP | 0.07
HMNPAYTDSRMKTFLEELPVMKASLSQKHVTRFLVWQEYIGRHPDGYGKSQFFYHLKQNLVAAKG | -0.391
HMNPDTERIREFVAVSLKNRKVATSGEIQNMIVKQFKNFKLKSHGYSNMKSFLSSIDKIQLNSNGKYSLK | -1.89
HMNPEDDLLKAIIMKYFSNAQVQVDKNVIEYLLKRVDRDYQNLYNILEKINILSLQRKSKITTHLIRDIM | -0.414
HMNPFLELTEREMDVLRLIAIGRNNQEIASELVISEKTVKTHITNIFSKLHFKDRTQAAAYAWQSGIVR | -1.73
HMNPHGVAIIDVRKGKASTLRSLATSVRSLGEWDQLKIPIFNLESLTSLVLWHGLDAIVKEPESLQSNLIL | -0.513
HMNPHIQFWSLLRRQPDYNSAYKDELKAMFVWQWSGEKTESLNEFYKTDPYRYKSMLMDMRNRAL | -3.33
HMNPIDAHVGARVRLRRMLIGMSQEKLGELLGVTFQQIQKYEKGANRIGASRLYEVSRVLDVPVQYFFDDM | -3.66
HMNPLDGTSVHPESYEAAEKLLKKQGFSLEDISGGKLTGLSLTIKDYARLAKELEIGEITLRDIVKELEK | -0.132
HMNPLHYKAAHWVREGLFDDLKSFVELETRINSIFEEKDRGDVFEIFIEGYRSFSKWRALVLRLA | -0.365
HMNPNEVQIPDLVNKTEEEAEQILKDLKLKLVVKSEEYDENIEKGKIISQDPTYKENYKIKEHSEISVIIS | 0.586
HMNPNPFVNLSPRELEVLNLLFKGYGVLEISNELNIGQTTASTFKSRILKKTSTHSVVELIKLAEQYGFIP | -0.85
HMNPNPYIVLGVDKSMPFGEIKKVYQRKRREFHPDSLVAKGLPDELLQKAQDKFIAIQEAYKSIEKNQV | 0.44
